This note sets out measurements from patent US20250262210A1 (TRUSTEES OF COLUMBIA UNIVERSITY IN THE CITY OF NEW YORK, published 2025).

In the experiment the target is T1, NCAPD3 (human, UniProt P42695 1-1498).
T1 sequence (looked up): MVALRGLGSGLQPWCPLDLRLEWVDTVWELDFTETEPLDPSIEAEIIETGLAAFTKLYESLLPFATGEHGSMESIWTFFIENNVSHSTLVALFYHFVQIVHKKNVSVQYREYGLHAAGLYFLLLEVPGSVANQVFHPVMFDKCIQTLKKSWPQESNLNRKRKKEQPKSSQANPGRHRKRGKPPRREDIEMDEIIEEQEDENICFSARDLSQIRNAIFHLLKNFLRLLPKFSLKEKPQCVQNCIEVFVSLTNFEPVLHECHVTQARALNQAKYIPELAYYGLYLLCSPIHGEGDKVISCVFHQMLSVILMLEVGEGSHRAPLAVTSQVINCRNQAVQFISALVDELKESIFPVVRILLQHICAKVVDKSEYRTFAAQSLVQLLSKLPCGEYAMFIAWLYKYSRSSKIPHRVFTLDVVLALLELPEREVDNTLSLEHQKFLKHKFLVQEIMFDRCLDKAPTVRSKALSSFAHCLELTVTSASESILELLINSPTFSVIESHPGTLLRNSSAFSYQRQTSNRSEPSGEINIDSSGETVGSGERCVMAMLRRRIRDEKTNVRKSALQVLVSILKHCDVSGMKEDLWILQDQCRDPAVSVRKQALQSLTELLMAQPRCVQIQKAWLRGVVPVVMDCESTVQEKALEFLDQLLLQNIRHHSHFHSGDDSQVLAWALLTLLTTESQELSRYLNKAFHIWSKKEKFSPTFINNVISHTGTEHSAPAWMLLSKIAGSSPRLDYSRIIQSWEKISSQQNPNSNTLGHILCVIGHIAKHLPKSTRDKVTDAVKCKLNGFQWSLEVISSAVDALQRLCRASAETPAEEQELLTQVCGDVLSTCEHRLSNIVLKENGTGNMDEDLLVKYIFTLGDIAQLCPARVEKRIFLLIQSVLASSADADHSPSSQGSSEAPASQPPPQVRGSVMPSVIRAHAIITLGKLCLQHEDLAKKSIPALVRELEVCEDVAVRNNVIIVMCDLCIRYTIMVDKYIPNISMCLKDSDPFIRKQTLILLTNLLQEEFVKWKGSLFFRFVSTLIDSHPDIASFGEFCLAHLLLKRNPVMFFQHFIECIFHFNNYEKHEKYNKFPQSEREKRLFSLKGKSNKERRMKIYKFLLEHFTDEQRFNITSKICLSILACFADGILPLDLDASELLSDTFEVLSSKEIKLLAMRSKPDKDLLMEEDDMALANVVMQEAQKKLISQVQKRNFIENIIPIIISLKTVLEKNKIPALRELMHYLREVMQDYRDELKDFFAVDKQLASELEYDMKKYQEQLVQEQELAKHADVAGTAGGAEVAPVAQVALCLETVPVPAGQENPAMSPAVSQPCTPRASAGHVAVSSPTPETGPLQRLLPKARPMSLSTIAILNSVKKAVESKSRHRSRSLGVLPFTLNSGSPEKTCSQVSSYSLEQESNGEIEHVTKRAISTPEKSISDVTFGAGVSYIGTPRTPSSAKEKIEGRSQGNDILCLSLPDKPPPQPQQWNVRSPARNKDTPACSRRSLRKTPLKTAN
Put plainly: IP/MS, LZTR1 R810W-FLAG, U87. The essentials:
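Extracted peptides in 3% acetonitrile/0.1% formic acid ran on a 50 cm C18 column into an Orbitrap Fusion, with MaxQuant identification and spectral counting.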

B1: LZTR1 R810W-FLAG (other, human, UniProt Q8N653 1-840, looked up)
chain: MAGPGSTGGQIGAAALAGGARSKVAPSVDFDHSCSDSVEYLTLNFGPFETVHRWRRLPPCDEFVGARRSKHTVVAYKDAIYVFGGDNGKTMLNDLLRFDVKDCSWCRAFTTGTPPAPRYHHSAVVYGSSMFVFGGYTGDIYSNSNLKNKNDLFEYKFATGQWTEWKIEGRLPVARSAHGATVYSDKLWIFAGYDGNARLNDMWTIGLQDRELTCWEEVAQSGEIPPSCCNFPVAVCRDKMFVFSGQSGAKITNNLFQFEFKDKTWTRIPTEHLLRGSPPPPQRRYGHTMVAFDRHLYVFGGAADNTLPNELHCYDVDFQTWEVVQPSSDSEVGGAEVPERACASEEVPTLTYEERVGFKKSRDVFGLDFGTTSAKQPTQPASELPSGRLFHAAAVISDAMYIFGGTVDNNIRSGEMYRFQFSCYPKCTLHEDYGRLWESRQFCDVEFVLGEKEECVQGHVAIVTARSRWLRRKITQARERLAQKLEQEAAPVPREAPGVAAGGARPPLLHVAIREAEARPFEVLMQFLYTDKIKYPRKGHVEDVLLIMDVYKLALSFQLCRLEQLCRQYIEASVDLQNVLVVCESAARLQLSQLKEHCLNFVVKESHFNQVIMMKEFERLSSPLIVEIVRRKQQPPPRTPLDQPVDIGTSLIQDMKAYLEGAGAEFCDITLLLDGHPRPAHKAILAARSSYFEAMFRSFMPEDGQVNISIGEMVPSRQAFESMLRYIYYGEVNMPPEDSLYLFAAPYYYGFYNNRLQAYCKQNLEMNVTVQNVLQILEAADKTQALDMKRHCLHIIVHQFTKVSKLPTLWSLSQQLLLDIIDSLASHISDKQCAELGADI
notes: Stably expressed in U87 cells by lentivirus; also called LZTR1-FLAG-R810W; LZTR1 RW; not shown: FLAG tag
Turning to B1, the binding result is “binds”.
